Data taken from patent US20200024330A1.

B1: PGT-130 (antibody, V domains shown)
VH: QVQLQESGPGLVKPAETLSLTCSVSGESINTGHYYWGWVRQVPGKGLEWIGHIHYTTAVLHNPSLKSRLTIKIYTLRNQITLRLSNVTAADTAVYHCVRSGGDILYYYEWQKPHWFSPWGPGIHVTVSS
VL: QSALTQPPSASGSLGQSVTISCNGTSSDIGGWNFVSWYQQFPGRAPRLIIFEVNKRPSGVPGRFSGSKSGNSASLTVSGLQSDDEGQYFCSSLFGRWDVVFGGGTKLTVL
B2: PGT-123 (antibody, V domains shown)
VH: QLHLQESGPGLVKPPETLSLTCSVSGASINDAYWSWIRQSPGKRPEWVGYVHHSGDTNYNPSLKRRVTFSLDTAKNEVSLKLVDLTAADSATYFCARALHGKRIYGIVALGELFTYFYMDVWGKGTAVTVSS
VL: SSMSVSPGETAKISCGKESIGSRAVQWYQQKPGQPPSLIIYNNQDRPAGVPERFSASPDFRPGTTATLTITNVDAEDEADYYCHIYDARGGTNWVFDRGTTLTVL
B3: PGT-131 (antibody, V domains shown)
VH: QVQLQESGPGLVKPSETLSLTCTVSGDSINTGHHYWGWVRQVPGKGPEWIAHIHYNTAVLHNPALKSRVTISIFTLKNLITLSLSNVTAADTAVYFCVRSGGDILYYIEWQKPHWFYPWGPGILVTVSS
VL: QSALTQPPSASGSLGQSLTISCSGTGSDIGSWNFVSWYQQFPGRAPNLIIFEVNRRRSGVPDRFSGSKSGNTASLTVSGLRSEDEAEYFCSSLSGRWDIVFGGGTKVTVL

Experiments:
[1] = target: Env of the clade A HIV-1 pseudoviruses of the cross-clade 162-pseudovirus panel (n = 26); test: cell-based or functional assay
[2] = target: Env of the clade AG HIV-1 pseudoviruses of the cross-clade 162-pseudovirus panel (n = 10); test: cell-based or functional assay
[3] = target: Env of the clade B HIV-1 pseudoviruses of the cross-clade 162-pseudovirus panel (n = 31); test: cell-based or functional assay
[4] = target: Env of the clade D HIV-1 pseudoviruses of the cross-clade 162-pseudovirus panel (n = 25); test: cell-based or functional assay
[5] = target: Env of the clade F HIV-1 pseudoviruses of the cross-clade 162-pseudovirus panel (n = 15); test: cell-based or functional assay
[6] = target: HIV-1 Env of isolate MGRM-C-026 (HIV-1); test: cell-based or functional assay
[7] = target: HIV-1 JR-CSF Env D325A (HIV-1 isolate JR-CSF) (UniProt P20871); test: cell-based or functional assay
[8] = target: HIV-1 JR-CSF Env E321aA (HIV-1 isolate JR-CSF) (UniProt P20871); test: cell-based or functional assay
[9] = target: HIV-1 JR-CSF Env H330A (HIV-1 isolate JR-CSF) (UniProt P20871); test: cell-based or functional assay
[10] = target: HIV-1 JR-CSF Env I307A (HIV-1 JR-CSF) (UniProt P20871); test: cell-based or functional assay
[11] = target: HIV-1 JR-CSF Env I323A (HIV-1 isolate JR-CSF) (UniProt P20871); test: cell-based or functional assay
[12] = target: HIV-1 JR-CSF Env I414A (HIV-1 (isolate JR-CSF)) (UniProt P20871); test: cell-based or functional assay
[13] = target: HIV-1 JR-CSF Env I415A (HIV-1 (isolate JR-CSF)) (UniProt P20871); test: cell-based or functional assay
[14] = target: HIV-1 JR-CSF Env I423A (HIV-1 (isolate JR-CSF)) (UniProt P20871); test: cell-based or functional assay
[15] = target: HIV-1 JR-CSF Env I424A (HIV-1 (isolate JR-CSF)) (UniProt P20871); test: cell-based or functional assay
[16] = target: HIV-1 JR-CSF Env L416A (HIV-1 (isolate JR-CSF)) (UniProt P20871); test: cell-based or functional assay
[17] = target: HIV-1 JR-CSF Env N262A (HIV-1 JR-CSF) (UniProt P20871); test: cell-based or functional assay
[18] = target: HIV-1 JR-CSF Env N295A (HIV-1 JR-CSF) (UniProt P20871); test: cell-based or functional assay
[19] = target: HIV-1 JR-CSF Env N339A (HIV-1 isolate JR-CSF) (UniProt P20871); test: cell-based or functional assay
[20] = target: HIV-1 JR-CSF Env N411A (HIV-1 (isolate JR-CSF)) (UniProt P20871); test: cell-based or functional assay
[21] = target: HIV-1 JR-CSF Env P313A (HIV-1 JR-CSF) (UniProt P20871); test: cell-based or functional assay
[22] = target: HIV-1 JR-CSF Env Q337A (HIV-1 isolate JR-CSF) (UniProt P20871); test: cell-based or functional assay
[23] = target: HIV-1 JR-CSF Env R315A (HIV-1 isolate JR-CSF) (UniProt P20871); test: cell-based or functional assay
[24] = target: HIV-1 JR-CSF Env R327A (HIV-1 isolate JR-CSF) (UniProt P20871); test: cell-based or functional assay
[25] = target: HIV-1 JR-CSF Env R419A (HIV-1 (isolate JR-CSF)) (UniProt P20871); test: cell-based or functional assay
[26] = target: HIV-1 JR-CSF Env S199A (HIV-1 JR-CSF) (UniProt P20871); test: cell-based or functional assay
[27] = target: HIV-1 JR-CSF Env S306A (HIV-1 JR-CSF) (UniProt P20871); test: cell-based or functional assay
[28] = target: HIV-1 JR-CSF Env S334A (HIV-1 isolate JR-CSF) (UniProt P20871); test: cell-based or functional assay
[29] = target: HIV-1 JR-CSF Env S387A (HIV-1 (isolate JR-CSF)) (UniProt P20871); test: cell-based or functional assay
[30] = target: HIV-1 JR-CSF Env T202A (HIV-1 JR-CSF) (UniProt P20871); test: cell-based or functional assay
[31] = target: HIV-1 JR-CSF Env T297A (HIV-1 JR-CSF) (UniProt P20871); test: cell-based or functional assay
[32] = target: HIV-1 JR-CSF Env T303A (HIV-1 JR-CSF) (UniProt P20871); test: cell-based or functional assay
[33] = target: HIV-1 JR-CSF Env T319A (HIV-1 isolate JR-CSF) (UniProt P20871); test: cell-based or functional assay
[34] = target: HIV-1 JR-CSF Env T320A (HIV-1 isolate JR-CSF) (UniProt P20871); test: cell-based or functional assay
[35] = target: HIV-1 JR-CSF Env T388A (HIV-1 (isolate JR-CSF)) (UniProt P20871); test: cell-based or functional assay
[36] = target: HIV-1 JR-CSF Env T413A (HIV-1 (isolate JR-CSF)) (UniProt P20871); test: cell-based or functional assay
[37] = target: HIV-1 JR-CSF Env V292A (HIV-1 JR-CSF) (UniProt P20871); test: cell-based or functional assay
[38] = target: WT JR-FL gp120 (HIV-1 (isolate JR-FL)); test: ELISA on coated gp120; EC50 by nonlinear regression
[39] = target: JR-FL gp120 ΔV1/ΔV2 (HIV-1 (isolate JR-FL)); test: as above

Row | Binder | Median IC50 against viruses neutralized with an IC50 <50 µg/ml [1] | Median IC50 against viruses neutralized with an IC50 <50 µg/ml [2] | Median IC50 against viruses neutralized with an IC50 <50 µg/ml [3] | Median IC50 against viruses neutralized with an IC50 <50 µg/ml [4] | Median IC50 against viruses neutralized with an IC50 <50 µg/ml [5] | Fold IC50 increase relative to wild-type [7] | Fold IC50 increase relative to wild-type [8] | Fold IC50 increase relative to wild-type [9] | Fold IC50 increase relative to wild-type [10] | Fold IC50 increase relative to wild-type [11] | Fold IC50 increase relative to wild-type [12] | Fold IC50 increase relative to wild-type [13] | Fold IC50 increase relative to wild-type [14] | Fold IC50 increase relative to wild-type [15] | Fold IC50 increase relative to wild-type [16] | Fold IC50 increase relative to wild-type [17] | Fold IC50 increase relative to wild-type [18] | Fold IC50 increase relative to wild-type [19] | Fold IC50 increase relative to wild-type [20] | Fold IC50 increase relative to wild-type [21] | other results
1 | B1 | 0.09 µg/mL | 0.04 µg/mL | 0.09 µg/mL | 0.65 µg/mL | 0.07 µg/mL | > 1000 fold | 1.7 fold | 0.9 fold | 1000 fold | 0.8 fold | 0.7 fold | 0.6 fold | > 1000 fold | 3.9 fold | 1 fold | 0.7 fold | 0.7 fold | 0.2 fold | 0.6 fold | 0.3 fold | Polyclonal Transfectant Neutralization Index (well 5147 N6) [6]: 1.05; Primary Neutralization Index (B cell culture well 5147 N6) [6]: 3; Fold IC50 increase relative to wild-type [22]: 1 fold; Fold IC50 increase relative to wild-type [23]: 0.6 fold; Fold IC50 increase relative to wild-type [24]: 2.4 fold; Fold IC50 increase relative to wild-type [25]: 2.6 fold; Fold IC50 increase relative to wild-type [26]: 0.9 fold; Fold IC50 increase relative to wild-type [27]: 1.5 fold; Fold IC50 increase relative to wild-type [28]: 0.5 fold; Fold IC50 increase relative to wild-type [29]: 0.7 fold; Fold IC50 increase relative to wild-type [30]: 1.2 fold; Fold IC50 increase relative to wild-type [31]: 0.9 fold; Fold IC50 increase relative to wild-type [32]: > 250 fold; Fold IC50 increase relative to wild-type [33]: 1.6 fold; Fold IC50 increase relative to wild-type [34]: 0.9 fold; Fold IC50 increase relative to wild-type [35]: 1 fold; Fold IC50 increase relative to wild-type [36]: 0.6 fold; Fold IC50 increase relative to wild-type [37]: 0.9 fold; EC50 [38]: 0.2 µg/mL
2 | B2 | 0.02 µg/mL | 0.61 µg/mL | 0.02 µg/mL | 0.02 µg/mL | 0.09 µg/mL | 64 fold | 0.6 fold | 0.3 fold | 5.9 fold | 1 fold | 0.3 fold | 0.4 fold | 1.5 fold | 0.5 fold | 0.9 fold | 0.5 fold | 1.2 fold | 0.8 fold | 0.5 fold | 0.2 fold | Primary Neutralization Index (B cell culture well 4858 P8) [6]: 33.8; Fold IC50 increase relative to wild-type [22]: 0.5 fold; Fold IC50 increase relative to wild-type [23]: 0.7 fold; Fold IC50 increase relative to wild-type [24]: 1.7 fold; Fold IC50 increase relative to wild-type [25]: 0.7 fold; Fold IC50 increase relative to wild-type [26]: 1.1 fold; Fold IC50 increase relative to wild-type [27]: 0.5 fold; Fold IC50 increase relative to wild-type [28]: > 50 fold; Fold IC50 increase relative to wild-type [29]: 0.9 fold; Fold IC50 increase relative to wild-type [30]: 1.2 fold; Fold IC50 increase relative to wild-type [31]: 0.3 fold; Fold IC50 increase relative to wild-type [32]: 1.1 fold; Fold IC50 increase relative to wild-type [33]: 0.4 fold; Fold IC50 increase relative to wild-type [34]: 0.7 fold; Fold IC50 increase relative to wild-type [35]: 0.2 fold; Fold IC50 increase relative to wild-type [36]: 0.4 fold; Fold IC50 increase relative to wild-type [37]: 1.7 fold; EC50 [39]: 0.3 µg/mL; EC50 [38]: 0.2 µg/mL
3 | B3 | 0.09 µg/mL | 0.18 µg/mL | 0.07 µg/mL | 0.85 µg/mL | 0.55 µg/mL | > 170 fold | 1.8 fold | 0.5 fold | > 170 fold | 38 fold | 1 fold | 0.6 fold | > 80 fold | 4.8 fold | 1 fold | 0.4 fold | 2.1 fold | 1 fold | 0.6 fold | 0.52 fold | Primary Neutralization Index (B cell culture well 5136 H1) [6]: 1.2; Fold IC50 increase relative to wild-type [22]: 1.3 fold; Fold IC50 increase relative to wild-type [23]: 0.7 fold; Fold IC50 increase relative to wild-type [24]: 19 fold; Fold IC50 increase relative to wild-type [25]: 1.7 fold; Fold IC50 increase relative to wild-type [26]: 1.6 fold; Fold IC50 increase relative to wild-type [27]: 0.7 fold; Fold IC50 increase relative to wild-type [28]: 0.4 fold; Fold IC50 increase relative to wild-type [29]: 1.1 fold; Fold IC50 increase relative to wild-type [30]: 2.7 fold; Fold IC50 increase relative to wild-type [31]: 1.2 fold; Fold IC50 increase relative to wild-type [32]: > 170 fold; Fold IC50 increase relative to wild-type [33]: 0.9 fold; Fold IC50 increase relative to wild-type [34]: 4.5 fold; Fold IC50 increase relative to wild-type [35]: 0.6 fold; Fold IC50 increase relative to wild-type [36]: 0.6 fold; Fold IC50 increase relative to wild-type [37]: 1.4 fold; EC50 [38]: 0.4 µg/mL
